Literature values, collected in PMC3981547.
Like-named read-outs stand apart in the source and are kept apart here.

Columns and labels:
IL-13Rα1 (Homo sapiens) [1] = biological target: IL-13Rα1 (Homo sapiens) (UniProt P78552)
IL-2Rα (Homo sapiens) = IL-2Rα (Homo sapiens) (UniProt P01589)
IL-2Rβ (Homo sapiens) = IL-2Rβ (Homo sapiens) (UniProt P14784)
γc (Homo sapiens) = γc (Homo sapiens) (UniProt P31785)
IL-2Rβ/γc (Homo sapiens) = IL-2Rβ/γc (Homo sapiens) (UniProt P14784)
IL-13Rα1 (Homo sapiens) [2] = biological target: IL-13Rα1 (Homo sapiens) (UniProt P78552); remark: listed apart in the source
[3] = biological target: IL-4Rα ECD (Homo sapiens) (UniProt P24394); test: ITC
Chain of UniProt P24394 (P24394 26-232): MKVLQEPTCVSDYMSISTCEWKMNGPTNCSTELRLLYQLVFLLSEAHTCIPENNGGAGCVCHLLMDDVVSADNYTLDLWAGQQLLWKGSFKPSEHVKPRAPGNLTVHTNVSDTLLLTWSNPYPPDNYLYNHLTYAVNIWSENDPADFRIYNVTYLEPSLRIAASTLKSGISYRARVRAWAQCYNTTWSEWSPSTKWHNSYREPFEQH

Chain of UniProt P78552 (P78552 22-343): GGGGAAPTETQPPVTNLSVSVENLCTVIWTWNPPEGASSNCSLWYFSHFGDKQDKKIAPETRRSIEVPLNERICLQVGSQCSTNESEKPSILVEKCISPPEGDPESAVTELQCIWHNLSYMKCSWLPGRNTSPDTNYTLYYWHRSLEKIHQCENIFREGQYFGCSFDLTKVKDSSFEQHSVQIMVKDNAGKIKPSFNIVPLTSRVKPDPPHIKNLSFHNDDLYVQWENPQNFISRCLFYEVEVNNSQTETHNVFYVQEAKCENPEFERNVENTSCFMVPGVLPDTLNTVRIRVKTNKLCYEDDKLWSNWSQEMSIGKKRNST
Chain of UniProt P31785 (P31785 23-262): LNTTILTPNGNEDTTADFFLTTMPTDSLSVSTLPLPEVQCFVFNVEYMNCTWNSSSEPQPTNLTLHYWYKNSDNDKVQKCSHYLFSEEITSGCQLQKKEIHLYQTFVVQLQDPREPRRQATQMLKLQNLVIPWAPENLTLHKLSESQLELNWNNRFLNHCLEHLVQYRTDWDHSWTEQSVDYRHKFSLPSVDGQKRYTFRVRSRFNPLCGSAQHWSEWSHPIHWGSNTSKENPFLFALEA
Chain of UniProt P01589 (P01589 22-240): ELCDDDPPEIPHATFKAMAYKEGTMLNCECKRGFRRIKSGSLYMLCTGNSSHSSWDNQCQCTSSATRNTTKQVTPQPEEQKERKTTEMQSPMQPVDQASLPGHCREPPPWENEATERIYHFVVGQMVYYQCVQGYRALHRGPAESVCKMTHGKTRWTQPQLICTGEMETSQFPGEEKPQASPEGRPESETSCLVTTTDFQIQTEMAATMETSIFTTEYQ

For IL-13 (from UniProt P35225), the Kd (IL-13Rα1 (Homo sapiens) [1]) is listed as 30 nM.
In the case of IL-2 (from UniProt P60568), the Kd (IL-2Rα (Homo sapiens)) is listed as 10 nM, the Kd (IL-2Rβ (Homo sapiens)) is listed as 100 nM and the Kd (γc (Homo sapiens)) is listed as 700000 nM. For the same substance, the Kd (IL-2Rβ/γc (Homo sapiens)) was 1 nM.
For IL-4/IL-4Rα (from UniProt P05112), the Kd (IL-13Rα1 (Homo sapiens) [2]) is given as 487 nM.
In the case of IL-4 (from UniProt P05112), the Kd [3] is given as 1 nM.
